Results published in the supplement of paper PMC9112550, “Optimization of the antimicrobial peptide Bac7 by deep mutational scanning” (BMC Biology, 2022).

tested on: Escherichia coli TOP10; test: shrunken log2 fold change of peptide-encoding DNA abundance (4.5 h post-induction vs induction); higher = less antimicrobial activity (less host growth inhibition); details: time post-induction: 4.5 h; library: site-saturation at positions 5, 18, 19, 20
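Also: peptides expressed intracellularly from a pBAD plasmid library in pooled LB shake-flask culture, induced with 0.3% L-arabinose, DNA abundance read by NGS, three biological replicates, DESeq2 with apeglm shrinkage.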

Sequence | shrunken log2 fold change
RRIRSRPPRLPRPRPRPTCMPRP | 0.0286
RRIRSRPPRLPRPRPRPTDSPRP | -0.0593
RRIRSRPPRLPRPRPRPTEKPRP | 0.0802
RRIRSRPPRLPRPRPRPTGIPRP | -0.0906
RRIRSRPPRLPRPRPRPTHEPRP | -0.0435
RRIRSRPPRLPRPRPRPTHYPRP | -0.125
RRIRSRPPRLPRPRPRPTIEPRP | -0.0439
RRIRSRPPRLPRPRPRPTKWPRP | -0.0872
RRIRSRPPRLPRPRPRPTMPPRP | 0.0349
RRIRSRPPRLPRPRPRPTNSPRP | -0.24
RRIRSRPPRLPRPRPRPTQFPRP | 0.212
RRIRSRPPRLPRPRPRPTTCPRP | 0.0283
RRIRSRPPRLPRPRPRPTTNPRP | 0.00407
RRIRSRPPRLPRPRPRPTTPPRP | 0.502
RRIRSRPPRLPRPRPRPTVAPRP | 0.243
RRIRSRPPRLPRPRPRPTVDPRP | 0.16
RRIRSRPPRLPRPRPRPTVTPRP | 0.166
RRIRSRPPRLPRPRPRPTWHPRP | 0.179
RRIRSRPPRLPRPRPRPTWSPRP | -0.0422
RRIRSRPPRLPRPRPRPVFAPRP | 0.218
RRIRSRPPRLPRPRPRPVFYPRP | -0.266
RRIRSRPPRLPRPRPRPVHFPRP | 0.0527

Sequence | shrunken log2 fold change
RRIRSRPPRLPRPRPRPVICPRP | -0.0365
RRIRSRPPRLPRPRPRPVILPRP | -0.0746
RRIRSRPPRLPRPRPRPVKGPRP | -0.0577
RRIRSRPPRLPRPRPRPVKQPRP | 0.0733
RRIRSRPPRLPRPRPRPVKYPRP | -0.177
RRIRSRPPRLPRPRPRPVLCPRP | -0.00306
RRIRSRPPRLPRPRPRPVMKPRP | -0.45
RRIRSRPPRLPRPRPRPVNFPRP | -0.262
RRIRSRPPRLPRPRPRPVQDPRP | 0.339
RRIRSRPPRLPRPRPRPVRGPRP | 0.573
RRIRSRPPRLPRPRPRPVRQPRP | 0.19
RRIRSRPPRLPRPRPRPVRRPRP | 0.558
RRIRSRPPRLPRPRPRPVTTPRP | -0.163
RRIRSRPPRLPRPRPRPVVKPRP | -0.14
RRIRSRPPRLPRPRPRPVWVPRP | 0.351
RRIRSRPPRLPRPRPRPWAWPRP | -0.131
RRIRSRPPRLPRPRPRPWCSPRP | -0.296
RRIRSRPPRLPRPRPRPWCYPRP | -0.263
RRIRSRPPRLPRPRPRPWDGPRP | -0.0512
RRIRSRPPRLPRPRPRPWDYPRP | 0.0318
RRIRSRPPRLPRPRPRPWEMPRP | -0.00146
RRIRSRPPRLPRPRPRPWFKPRP | -0.504

Sequence | shrunken log2 fold change
RRIRSRPPRLPRPRPRPWFSPRP | -0.544
RRIRSRPPRLPRPRPRPWGSPRP | -0.0403
RRIRSRPPRLPRPRPRPWHIPRP | -0.0156
RRIRSRPPRLPRPRPRPWHMPRP | 0.17
RRIRSRPPRLPRPRPRPWINPRP | -0.205
RRIRSRPPRLPRPRPRPWKDPRP | -0.00804
RRIRSRPPRLPRPRPRPWKSPRP | -0.0239
RRIRSRPPRLPRPRPRPWLMPRP | -0.156
RRIRSRPPRLPRPRPRPWLRPRP | -0.241
RRIRSRPPRLPRPRPRPWMAPRP | 0.0303
RRIRSRPPRLPRPRPRPWNHPRP | -0.0307
RRIRSRPPRLPRPRPRPWNPPRP | -0.00281
RRIRSRPPRLPRPRPRPWNQPRP | 0.0379
RRIRSRPPRLPRPRPRPWPAPRP | 0.199
RRIRSRPPRLPRPRPRPWPTPRP | 0.219
RRIRSRPPRLPRPRPRPWPYPRP | -0.03
RRIRSRPPRLPRPRPRPWQYPRP | 0.0433
RRIRSRPPRLPRPRPRPWRMPRP | -0.181
RRIRSRPPRLPRPRPRPWTMPRP | 0.0795
RRIRSRPPRLPRPRPRPWVDPRP | -0.0314
RRIRSRPPRLPRPRPRPWVKPRP | 0.194
RRIRSRPPRLPRPRPRPWVSPRP | -0.203

Sequence | shrunken log2 fold change
RRIRSRPPRLPRPRPRPWWMPRP | -0.0399
RRIRSRPPRLPRPRPRPWWRPRP | -0.0239
RRIRSRPPRLPRPRPRPYANPRP | -0.185
RRIRSRPPRLPRPRPRPYAWPRP | -0.087
RRIRSRPPRLPRPRPRPYCCPRP | -0.375
RRIRSRPPRLPRPRPRPYEGPRP | -0.213
RRIRSRPPRLPRPRPRPYEYPRP | -0.55
RRIRSRPPRLPRPRPRPYFRPRP | -0.853
RRIRSRPPRLPRPRPRPYGEPRP | -0.256
RRIRSRPPRLPRPRPRPYHDPRP | -0.174
RRIRSRPPRLPRPRPRPYHKPRP | -0.404
RRIRSRPPRLPRPRPRPYHPPRP | -0.00174
RRIRSRPPRLPRPRPRPYHVPRP | -1.09
RRIRSRPPRLPRPRPRPYICPRP | -0.959
RRIRSRPPRLPRPRPRPYITPRP | -0.535
RRIRSRPPRLPRPRPRPYLDPRP | -0.175
RRIRSRPPRLPRPRPRPYMMPRP | -0.36
RRIRSRPPRLPRPRPRPYMRPRP | -0.0496
RRIRSRPPRLPRPRPRPYMWPRP | -0.744
RRIRSRPPRLPRPRPRPYNCPRP | -0.171
RRIRSRPPRLPRPRPRPYNGPRP | -0.0342
RRIRSRPPRLPRPRPRPYQIPRP | -0.106

Sequence | shrunken log2 fold change
RRIRSRPPRLPRPRPRPYRLPRP | -0.279
RRIRSRPPRLPRPRPRPYRMPRP | -0.0162
RRIRSRPPRLPRPRPRPYTVPRP | -0.676
RRIRSRPPRLPRPRPRPYTWPRP | -0.989
RRIRSRPPRLPRPRPRPYWFPRP | -0.624
RRIRSRPPRLPRPRPRPYWPPRP | -0.642
RRIRSRPPRLPRPRPRPYWWPRP | -0.231
RRIRSRPPRLPRPRPRPYYDPRP | -0.214
RRIRSRPPRLPRPRPRPYYHPRP | -0.44
RRIRTRPPRLPRPRPRPAAHPRP | 0.199
RRIRTRPPRLPRPRPRPAAIPRP | 0.163
RRIRTRPPRLPRPRPRPAANPRP | 0.0922
RRIRTRPPRLPRPRPRPADFPRP | 0.0361
RRIRTRPPRLPRPRPRPADSPRP | 0.0603
RRIRTRPPRLPRPRPRPAGCPRP | 0.316
RRIRTRPPRLPRPRPRPAHFPRP | 0.13
RRIRTRPPRLPRPRPRPALFPRP | 0.000901
RRIRTRPPRLPRPRPRPALHPRP | -0.19
RRIRTRPPRLPRPRPRPAMNPRP | -0.405
RRIRTRPPRLPRPRPRPAPVPRP | 0.0626
RRIRTRPPRLPRPRPRPAQIPRP | 0.358
